Data published in publication PMC4437028 (2015).

Assays:
[1] = target: mouse Slitrk2 LRR1 (first leucine-rich repeat of Slit and Trk-like family member 2), wild type (UniProt Q810C0); assay: SPR equilibrium analysis; conditions: point at 4 µM PTPδ Ig1-Fn1 (highest concentration); Slitrk2 LRR1 immobilized on a CM5 sensor tip; parent: est. 600; read off a plot
[2] = target: T1, mouse Slitrk2 LRR1 (first leucine-rich repeat of Slit and Trk-like family member 2), wild type (mouse, UniProt Q810C0 1-266, N-linked glycans); assay: SPR
T1 chain: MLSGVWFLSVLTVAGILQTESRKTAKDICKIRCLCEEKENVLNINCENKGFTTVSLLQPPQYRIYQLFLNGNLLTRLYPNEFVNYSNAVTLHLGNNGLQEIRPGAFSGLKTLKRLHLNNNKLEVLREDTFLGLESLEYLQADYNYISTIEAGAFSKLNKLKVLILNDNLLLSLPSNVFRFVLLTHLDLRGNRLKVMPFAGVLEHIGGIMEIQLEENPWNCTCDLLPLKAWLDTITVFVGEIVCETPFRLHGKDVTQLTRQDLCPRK

[3] = target: T2, mouse Slitrk2 LRR1 (first leucine-rich repeat of Slit and Trk-like family member 2), wild type, Q810C0; assay: SPR equilibrium analysis; conditions: chain shown with the change, Slitrk2 LRR1 immobilized on a CM5 sensor tip
T2 chain: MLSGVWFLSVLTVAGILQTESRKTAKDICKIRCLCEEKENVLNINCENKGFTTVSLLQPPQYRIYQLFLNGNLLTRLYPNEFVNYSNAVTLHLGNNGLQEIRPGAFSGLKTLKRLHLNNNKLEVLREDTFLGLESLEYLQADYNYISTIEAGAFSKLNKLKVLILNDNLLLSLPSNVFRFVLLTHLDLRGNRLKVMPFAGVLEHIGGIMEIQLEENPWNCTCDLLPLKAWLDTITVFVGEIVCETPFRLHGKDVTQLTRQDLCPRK

[4] = target: mouse Slitrk2 LRR1 (first leucine-rich repeat of Slit and Trk-like family member 2), wild type (mouse) (UniProt Q810C0); assay: crystal structure; Slitrk2 LRR1 and PTPδ Ig1-Fn1 mixed at a molar ratio of 1:1, treated with neuraminidase; sitting drop vapor diffusion, 293 K, 15% PEG4000, 0.1 M sodium acetate, 0.1 M MES (pH 6.0); 3.35 Å
[5] = target: T3, mouse Slitrk2 LRR1 R114A (mouse, UniProt Q810C0 1-266, R114A); assay: SPR
T3 sequence: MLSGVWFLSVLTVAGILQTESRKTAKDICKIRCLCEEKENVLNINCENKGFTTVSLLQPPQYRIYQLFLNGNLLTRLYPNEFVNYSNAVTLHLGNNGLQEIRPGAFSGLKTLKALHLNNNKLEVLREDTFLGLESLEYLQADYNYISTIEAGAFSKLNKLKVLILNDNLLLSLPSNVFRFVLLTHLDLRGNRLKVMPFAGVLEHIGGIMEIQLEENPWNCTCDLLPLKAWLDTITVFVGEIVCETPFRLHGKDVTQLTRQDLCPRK

[6] = target: T4, mouse Slitrk2 LRR1 F247A H250A (mouse, UniProt Q810C0 1-266, F247A | H250A); assay: SPR
T4 sequence: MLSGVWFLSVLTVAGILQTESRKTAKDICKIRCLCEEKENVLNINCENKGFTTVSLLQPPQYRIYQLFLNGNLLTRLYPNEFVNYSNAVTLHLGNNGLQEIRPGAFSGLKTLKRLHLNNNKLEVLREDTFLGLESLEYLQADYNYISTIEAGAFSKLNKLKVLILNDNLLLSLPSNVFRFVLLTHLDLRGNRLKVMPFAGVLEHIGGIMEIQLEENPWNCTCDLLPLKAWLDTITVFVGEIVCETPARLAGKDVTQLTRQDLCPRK

With “mouse PTPδ Ig1-Fn1 (residues 28-418), splice variant meA9B+ (from UniProt Q64487) R236E” the response (Response unit) [1] was 97.

B1: mouse PTPδ Ig1-Fn1, splice variant meA-B+ (domain or fragment)
chain: ETPPRFTRTPVDQTGVSGGVASFICQATGDPRPKIVWNKKGKKVSNQRFEVIEFDDGSGSVLRIQPLRTPRDEAIYECVASNNVGEISVSTRLTVLREDQIPRGFPTIDMGPQLKVVERTRTATMLCAASGNPDPEITWFKDFLPVDTSNNNGRIKQLRSGALQIEQSEESDQGKYECVATNSAGTRYSAPANLYVRELREVRRVPPRFSIPPTNHEIMPGGSVNITCVAVGSPMPYVKWMLGAEDLTPEDDMPIGRNVLELNDVRQSANYTCVAMSTLGVIEAIAQITVKALPKPPGTPVVTESTATSITLTWDSGNPEPVSYYIIQHKPKNSEEPYKEIDGIATTRYSVAGLSPYSDYEFRVVAVNNIGRGPASEPVLTQ
Molecule B1 has a Kd [2] of 451 nM.

B2: mouse PTPδ Ig1-Fn1 (residues 28-418), splice variant meA9B+, Q64487 Y273A (protein)
chain: ETPPRFTRTPVDQTGVSGGVASFICQATGDPRPKIVWNKKGKKVSNQRFEVIEFDDGSGSVLRIQPLRTPRDEAIYECVASNNVGEISVSTRLTVLREDQIPRGFPTIDMGPQLKVVERTRTATMLCAASGNPDPEITWFKDFLPVDTSNNNGRIKQLRSESIGGTPIRGALQIEQSEESDQGKYECVATNSAGTRYSAPANLYVRELREVRRVPPRFSIPPTNHEIMPGGSVNITCVAVGSPMPAVKWMLGAEDLTPEDDMPIGRNVLELNDVRQSANYTCVAMSTLGVIEAIAQITVKALPKPPGTPVVTESTATSITLTWDSGNPEPVSYYIIQHKPKNSEEPYKEIDGIATTRYSVAGLSPYSDYEFRVVAVNNIGRGPASEPVLTQ
With B2 the Kd ([3]; PTPδ Ig1-Fn1 injected, parent: 355.5 ± 6.5 nM) was 312 nM and the response (Response unit) ([3]; point at 4 µM PTPδ Ig1-Fn1 (highest concentration), parent: est. 600, read off a …) was 500.

B3: mouse PTPδ Ig1-Fn1 (residues 28-418), splice variant meA9B+ (domain or fragment)
chain: ETPPRFTRTPVDQTGVSGGVASFICQATGDPRPKIVWNKKGKKVSNQRFEVIEFDDGSGSVLRIQPLRTPRDEAIYECVASNNVGEISVSTRLTVLREDQIPRGFPTIDMGPQLKVVERTRTATMLCAASGNPDPEITWFKDFLPVDTSNNNGRIKQLRSESIGGTPIRGALQIEQSEESDQGKYECVATNSAGTRYSAPANLYVRELREVRRVPPRFSIPPTNHEIMPGGSVNITCVAVGSPMPYVKWMLGAEDLTPEDDMPIGRNVLELNDVRQSANYTCVAMSTLGVIEAIAQITVKALPKPPGTPVVTESTATSITLTWDSGNPEPVSYYIIQHKPKNSEEPYKEIDGIATTRYSVAGLSPYSDYEFRVVAVNNIGRGPASEPVLTQ
modifications: N-linked glycans
B3 was tested, and the stoichiometry N [4] was 1, the Kd [5] was 257 nM and the Kd [2] was 356 nM. It also gave a Kd [6] of 580 nM.
